Laboratory results: patent publication US20020010135A1 (Amgen, published 2002)

Columns and labels:
trkB receptor = assay: cell-based or functional assay
[1] = target: human trkC receptor protein (human, UniProt Q16288 32-839); assay: cell-based or functional assay
Sequence of human trkC receptor protein (Q16288 32-839): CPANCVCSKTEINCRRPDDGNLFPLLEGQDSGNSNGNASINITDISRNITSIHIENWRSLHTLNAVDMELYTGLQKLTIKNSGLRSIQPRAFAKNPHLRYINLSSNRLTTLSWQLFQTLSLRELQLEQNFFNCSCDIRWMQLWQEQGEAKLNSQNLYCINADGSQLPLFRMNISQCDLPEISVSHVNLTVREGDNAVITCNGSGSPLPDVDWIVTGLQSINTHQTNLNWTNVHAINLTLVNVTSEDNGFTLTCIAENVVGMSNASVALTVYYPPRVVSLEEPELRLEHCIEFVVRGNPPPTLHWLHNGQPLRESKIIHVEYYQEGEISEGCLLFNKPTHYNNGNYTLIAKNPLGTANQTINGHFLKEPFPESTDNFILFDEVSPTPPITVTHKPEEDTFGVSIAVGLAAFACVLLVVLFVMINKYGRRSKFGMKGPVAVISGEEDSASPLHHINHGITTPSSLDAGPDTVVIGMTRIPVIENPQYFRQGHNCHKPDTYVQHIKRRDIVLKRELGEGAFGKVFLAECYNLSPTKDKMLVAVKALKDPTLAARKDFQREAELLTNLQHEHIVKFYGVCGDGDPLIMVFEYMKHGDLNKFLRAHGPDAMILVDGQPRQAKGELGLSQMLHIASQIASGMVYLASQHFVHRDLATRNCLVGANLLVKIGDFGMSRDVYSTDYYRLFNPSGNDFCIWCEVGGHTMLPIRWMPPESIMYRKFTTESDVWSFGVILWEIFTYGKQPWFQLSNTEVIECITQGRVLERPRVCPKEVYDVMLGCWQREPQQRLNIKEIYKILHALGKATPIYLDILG

Molecule	Bioactivity (mg/mg), MTS mitogenic bioassay (trkB receptor) [mg/mg]	Percentage of expected activity (%), in vitro mitogenic bioassay [1] [%]
BDNF, K65D, K73D, K95A, R97A (from UniProt P23560 129-247) (ligand)	1.24	–
BDNF, P60E, K65D, K73D, K95A (from UniProt P23560 129-247) (ligand)	0.61	–
NT-3(1-117)R61A,K64D (ligand) MYAEHKSHRGEYSVCDSESLWVTDKSSAIDIRGHQVTVLGEIKTGNSPVKQYFYETRCKEAAPVDNGCRGIDDKHWNSQCKTSQTYVRALTSENNKLVGWRWIRIDTSCVCALSRKIG	–	328

More lines, now with the values ahead:

Bioactivity (mg/mg), MTS mitogenic bioassay (trkB receptor) [mg/mg]	Percentage of expected activity (%), in vitro mitogenic bioassay [1] [%]	Molecule
0.61	–	Wild type BDNF (from UniProt P23560 129-247) (ligand)
–	72	wild type human NT-3 (r-metHuNT-3) (ligand) MYAEHKSHRGEYSVCDSESLWVTDKSSAIDIRGHQVTVLGEIKTGNSPVKQYFYETRCKEARPVKNGCRGIDDKHWNSQCKTSQTYVRALTSENNKLVGWRWIRIDTSCVCALSRKIGRT
–	524	NT-3(1-119)R61A,K64D (ligand) MYAEHKSHRGEYSVCDSESLWVTDKSSAIDIRGHQVTVLGEIKTGNSPVKQYFYETRCKEAAPVDNGCRGIDDKHWNSQCKTSQTYVRALTSENNKLVGWRWIRIDTSCVCALSRKIGRT
